Data taken from patent US20160024210A1 (AstraZeneca / MedImmune, published 2016).
Substitutions are numbered along the chain they refer to.

What was measured:
[1] = biological target: T1, H7CR-GFP fusion protein on transfected CHO cells (Homo sapiens (Human), UniProt Q96BF3 23-282); assay: flow cytometry, 5 µg/ml variant on H7CR-GFP transfected CHO cells, anti-hIg PE secondary antibody [row HC1-2, column LC1-2]
T1 construct: not shown: GFP part
T1 sequence: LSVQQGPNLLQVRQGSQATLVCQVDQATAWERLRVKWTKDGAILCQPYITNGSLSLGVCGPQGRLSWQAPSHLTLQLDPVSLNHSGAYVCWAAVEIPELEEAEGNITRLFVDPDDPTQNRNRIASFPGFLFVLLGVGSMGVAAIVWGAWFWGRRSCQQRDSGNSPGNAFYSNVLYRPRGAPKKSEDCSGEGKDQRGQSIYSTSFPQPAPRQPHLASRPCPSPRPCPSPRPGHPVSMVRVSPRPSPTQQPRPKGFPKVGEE
Procedure: (§1) 5 μg/ml antibodies from thirty-six variants were incubated with H7CR-GFP fusion protein transfected CHO cells for 30 min at room temperature. Cells were then washed twice with 2 ml flow cytometry buffer, and resuspended in 100 μl flow cytometry buffer. 1 μl anti-hIg PE secondary antibody (Biolegend) was added and incubated with the cells for 15 mins Samples were then washed and resuspended in 100 μl flow cytometry buffer. Flow Cytometry data was acquired using BD Canto (BD Biosciences) in plate format and analyzed by FlowJo software.

[2] = biological target: T2, human H7CR (B7-H7 counter-receptor) (human, UniProt Q96BF3 23-282); assay: binding to human H7CR as endogenously expressed on the surface of a cell
T2 construct: Used for H7CR on CHO.hH7CR transfectants, human T cells and tonsil tissue; also called B7-H7CR; CD28H
T2 sequence: T1 sequence

[3] = biological target: T1, H7CR-GFP fusion protein on transfected …; assay: flow cytometry, 5 µg/ml variant on H7CR-GFP transfected CHO cells, anti-hIg PE secondary antibody [row HC1-2, column LC1-1]
Procedure: as §1

[4] = biological target: T1, H7CR-GFP fusion protein on transfected …; assay: flow cytometry, 5 µg/ml variant on H7CR-GFP transfected CHO cells, anti-hIg PE secondary antibody [row HC1-2, column LC1-3]
Procedure: as §1

[5] = biological target: T1, H7CR-GFP fusion protein on transfected …; assay: flow cytometry, 5 µg/ml variant on H7CR-GFP transfected CHO cells, anti-hIg PE secondary antibody [row HC1-3, column LC1-1]
Procedure: as §1

[6] = biological target: T1, H7CR-GFP fusion protein on transfected …; assay: flow cytometry, 5 µg/ml variant on H7CR-GFP transfected CHO cells, anti-hIg PE secondary antibody [row HC1-3, column LC1-2]
Procedure: as §1

[7] = biological target: T1, H7CR-GFP fusion protein on transfected …; assay: flow cytometry, 5 µg/ml variant on H7CR-GFP transfected CHO cells, anti-hIg PE secondary antibody [row HC1-3, column LC1-3]
Procedure: as §1

[8] = biological target: T1, H7CR-GFP fusion protein on transfected …; assay: flow cytometry, 5 µg/ml variant on H7CR-GFP transfected CHO cells, anti-hIg PE secondary antibody [row HC1-2, column LC2-2]
Procedure: as §1

[9] = biological target: T1, H7CR-GFP fusion protein on transfected …; assay: flow cytometry, 5 µg/ml variant on H7CR-GFP transfected CHO cells, anti-hIg PE secondary antibody [row HC1-1, column LC2-1]
Procedure: as §1

[10] = biological target: T1, H7CR-GFP fusion protein on transfected …; assay: flow cytometry, 5 µg/ml variant on H7CR-GFP transfected CHO cells, anti-hIg PE secondary antibody [row HC1-1, column LC2-2]
Procedure: as §1

[11] = biological target: T1, H7CR-GFP fusion protein on transfected …; assay: flow cytometry, 5 µg/ml variant on H7CR-GFP transfected CHO cells, anti-hIg PE secondary antibody [row HC1-1, column LC2-3]
Procedure: as §1

[12] = biological target: T1, H7CR-GFP fusion protein on transfected …; assay: flow cytometry, 5 µg/ml variant on H7CR-GFP transfected CHO cells, anti-hIg PE secondary antibody [row HC1-2, column LC2-1]
Procedure: as §1

[13] = biological target: T1, H7CR-GFP fusion protein on transfected …; assay: flow cytometry, 5 µg/ml variant on H7CR-GFP transfected CHO cells, anti-hIg PE secondary antibody [row HC1-2, column LC2-3]
Procedure: as §1

B1: 4.5 humanized variant 8 (HC1-2 / LC1-2) (antibody, V domains shown)
VH: QVQLQESGPGLVKPSQTLSLTCTVSGFSITTGGYYWNWIRQHPGKKLEWIGYIYTSGRTSYNPSLKSRVTISRDTSKNQFSLKLSSVTAADTAVYYCADMADKGGWFAYWGQGTLVTVSS
VL: DIVMTQSPDSLAVSLGERATINCKSSQSLFSSNTKRNYLNWYQQKPGQPPKLLIYHASTRLSGVPDRFSGSGSGTDFTLTISSLQAEDVADYFCQQHYETPLTFGDGTRLEIK
notes: Variable domains only; detected with anti-hIg secondary; also called VH1B / VL1B
binding result [1]: binds
binding result [2]: binds

B2: 4.5 humanized variant 7 (HC1-2 / LC1-1) (antibody, V domains shown)
VH: B1 VH
VL: B1 VL with N40A, L61E, D91V, F93Y, D106Q
notes: Variable domains only; detected with anti-hIg secondary; also called VH1B / VL1A
binding result [3]: binds
binding result [2]: binds

B3: 4.5 humanized variant 9 (HC1-2 / LC1-3) (antibody, V domains shown)
VH: B1 VH
VL: B1 VL with K24L, P49S
notes: Variable domains only; detected with anti-hIg secondary; also called VH1B / VL1C
binding result [4]: binds
binding result [2]: binds

B4: 4.5 humanized variant 13 (HC1-3 / LC1-1) (antibody, V domains shown)
VH: B1 VH with H42F, I50M
VL: B1 VL with N40A, L61E, D91V, F93Y, D106Q
notes: Variable domains only; detected with anti-hIg secondary; also called VH1C / VL1A
binding result [5]: binds
binding result [2]: binds

B5: 4.5 humanized variant 14 (HC1-3 / LC1-2) (antibody, V domains shown)
VH: B1 VH with H42F, I50M
VL: B1 VL
notes: Variable domains only; detected with anti-hIg secondary; also called VH1C / VL1B
binding result [2]: binds
binding result [6]: binds

B6: 4.5 humanized variant 15 (HC1-3 / LC1-3) (antibody, V domains shown)
VH: B1 VH with H42F, I50M
VL: B1 VL with K24L, P49S
notes: Variable domains only; detected with anti-hIg secondary; also called VH1C / VL1C
binding result [2]: binds
binding result [7]: binds

B7: 4.5 humanized variant 11 (HC1-2 / LC2-2) (antibody, V domains shown)
VH: B1 VH
VL: DIVMTQTPLSLPVTPGEPASISCRSSQSLFSSNTKRNYLNWYLQKPGQSPKLLIYHASTRLSGVPDRFSGSGSGTDFTLKISRVEAEDVGDYFCQQHYETPLTFGDGTRLEIK
notes: Variable domains only; detected with anti-hIg secondary; also called VH1B / VL2B
binding result [8]: binds
binding result [2]: binds

B8: 4.5 humanized variant 4 (HC1-1 / LC2-1) (antibody, V domains shown)
VH: B1 VH with N37S, K46G, S60Y, R73V
VL: B7 VL with N40D, K51Q, T59Y, L61A, D91V, F93Y, D106Q
notes: Variable domains only; detected with anti-hIg secondary; also called VH1A / VL2A
binding result [2]: binds
binding result [9]: binds

B9: 4.5 humanized variant 5 (HC1-1 / LC2-2) (antibody, V domains shown)
VH: B1 VH with N37S, K46G, S60Y, R73V
VL: B7 VL
notes: Variable domains only; detected with anti-hIg secondary; also called VH1A / VL2B
binding result [2]: binds
binding result [10]: binds

B10: 4.5 humanized variant 6 (HC1-1 / LC2-3) (antibody, V domains shown)
VH: B1 VH with N37S, K46G, S60Y, R73V
VL: B7 VL with L9S, R24L
notes: Variable domains only; detected with anti-hIg secondary; also called VH1A / VL2C
binding result [2]: binds
binding result [11]: binds

B11: 4.5 humanized variant 10 (HC1-2 / LC2-1) (antibody, V domains shown)
VH: B1 VH
VL: B7 VL with N40D, K51Q, T59Y, L61A, D91V, F93Y, D106Q
notes: Variable domains only; detected with anti-hIg secondary; also called VH1B / VL2A
binding result [12]: binds
binding result [2]: binds

B12: 4.5 humanized variant 12 (HC1-2 / LC2-3) (antibody, V domains shown)
VH: B1 VH
VL: B7 VL with L9S, R24L
notes: Variable domains only; detected with anti-hIg secondary; also called VH1B / VL2C
binding result [2]: binds
binding result [13]: binds
